From FireProtDB (doi:10.1016/0022-2836(82)90184-x)

Details: Escherichia coli (strain K12), 25 °C, GdnHCl, CD, reversible: yes, whole UniProt chain shown

B1: Tryptophan synthase alpha chain wild type, P0A877 (protein)
chain: MERYESLFAQLKERKEGAFVPFVTLGDPGIEQSLKIIDTLIEAGADALELGIPFSDPLADGPTIQNATLRAFAAGVTPAQCFEMLALIRQKHPTIPIGLLMYANLVFNKGIDEFYAQCEKVGVDSVLVADVPVEESAPFRQAALRHNVAPIFICPPNADDDLLRQIASYGRGYTYLLSRAGVTGAENRAALPLNHLVAKLKEYNAAPPLQGFGISAPDQVKAAIDAGAAGAISGSAIVKIIEQHINEPEKMLAALKVFVQPMKAATRS
unfolding free energy (pH 5.5, acetate 0.05 M): 5.2 kcal/mol | unfolding free energy (pH 7, Potassium phosphate 0.01 M): 8.8 kcal/mol | unfolding free energy (pH 9, Tris-HCl 0.025 M): 4.9 kcal/mol
